± gives the uncertainty stated by the source.
Experiment: amyloid nucleation score (Sup35N fusion, yeast selection) (log enrichment); library NNK1; higher = more nucleation; inactive = no reads after selection
Method in brief: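 Growth for 7 days at 30°C on medium lacking adenine and uracil followed a 24-hour induction with 100 μM copper sulfate of psi-negative yeast expressing peptides of 20 random codons fused to Sup35N. Input and output plasmid inserts were sequenced with Illumina, and sequences with under 100 input reads were excluded. Nucleation score is the DiMSum log enrichment of output over input reads, centred on the mode score of non-aggregating sequences.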

| Substance | amyloid nucleation score |
| --- | --- |
| FRDCLLVRYLCNVLTGDCTH | 1.94 ± 0.52 |
| VVTQCLLAAAVHLYCNCHHM | 6.972 ± 0.045 |
| TVRQTGRVPMTGLIMFW | 1.95 ± 0.19 |
| ILITSLWFSGVADVMANRVW | 0.314 ± 0.34 |
| ENHSECNWRKCQQTLISHEC | 0.487 ± 0.71 |
| PRHFVKVIEAPASLLIVYHG | -1.02 ± 1.8 |
| CSRVVWLVIRLLEMWIEPRA | 0.815 ± 0.73 |
| RYYMGTIWILGEFGSLFWMM | 0.06 ± 0.39 |
| LYMYSLSFLMGGNANHRLGM | 1.98 ± 0.16 |
| LKQTPMLGDMGWGHRCLGKT | -0.262 ± 0.73 |
| KCSSLLSHMWLCITLVTVLA | 0.357 ± 0.57 |
| LFSRVFSAANVIRHNFLFME | 0.746 ± 0.9 |
| RGSNAMDYSEVFCWMYNDLL | 1.11 ± 0.58 |
| SIYSFDHYGANRFLFYGGLS | 0.358 ± 0.62 |
| MWGPHCTRSTTTLVPRARKG | 0.468 ± 0.46 |
| NGLCLDDIVRLFVIITSVGP | 0.821 ± 1.1 |
| YTPGSGVLRAGTADQLMRNF | 0.522 ± 0.63 |
| LCTDCLSGTVSDCRMFSHNR | -0.592 ± 0.75 |
| RHYGGAFQRLYRMSGPMT | -1.05 ± 0.96 |
| TDARTR | 1.15 ± 0.36 |
| NCLCIMSPCLLPCWEWVSYR | 5.834 ± 0.055 |
| WCVFAFMKSQQCK | -0.112 ± 0.22 |
| AEAISSYHGWSYYLHHTPFS | 0.654 ± 1.2 |
| HKFSNELLL | -0.145 ± 0.76 |
| SPSFYFH | -0.019 ± 0.98 |

| Substance | amyloid nucleation score |
| --- | --- |
| GNIFWRMLWFVGYEKGSLLF | -0.022 ± 0.36 |
| DFLMMSVLHHNNVSYS | 1.52 ± 0.66 |
| SCGVLVSLFLYPKLNFGFYL | 0.419 ± 0.4 |
| ILYCLNLVIHLCQRYSLILR | 1.97 ± 0.56 |
| ILGWHGIRFVFRTALFRR | -0.286 ± 0.41 |
| KNLGTRGHSMY | -0.164 ± 0.31 |
| VYIHTWIRVKIWSSS | 1.96 ± 0.65 |
| CMSIRWSCYPLNNQVVATEV | 0.044 ± 0.29 |
| GYYIEMLYFMEALDIS | inactive |
| VQAVIWWRGRDYGRHRSRPW | -0.35 ± 0.35 |
| TSKERSLCSKDVT | 0.393 ± 0.55 |
| SEYMLRSNIVFPRWIS | 0.35 ± 0.71 |
| YKANCVETLSWSFGHNFFLR | -0.481 ± 0.49 |
| VCMRTAGCFSDTYGVHGFKI | 1.21 ± 0.24 |
| NFLIDTYCVNSFNVTL | 2.67 ± 0.17 |
| ILSKVCGFSVARIWCSCISI | 6.65 ± 0.088 |
| SCNFLYGRRLFL | -0.127 ± 0.55 |
| MRLNYGNITLSFGSPMMQTI | 0.682 ± 0.15 |
| VDSFRGHIESFPSLRTFIVS | inactive |
| TNMMYVYFKVI | inactive |
| GMRVLQIFGTGGGDSNTRGD | 0.84 ± 0.36 |
| FEQCPIFRRGRLLRSNAVCA | -0.145 ± 0.33 |
| FMAGNFSFFLRRNA | inactive |
| VLKPSLGGCLSHSVMLKLSD | inactive |
| SNSLFNVSQSRSSKSLYQNA | 0.264 ± 0.97 |

| Substance | amyloid nucleation score |
| --- | --- |
| SELRSWFL | -0.109 ± 1.2 |
| APSWYRSLMRSSA | 0.159 ± 0.34 |
| SVLTSMSITCWWKFWVGMSM | -0.731 ± 1.4 |
| STNIFSYATLSGFYTVTMIR | -0.618 ± 0.49 |
| PKRPMWLIQET | -0.571 ± 0.61 |
| CLNSDALDHW | 1.17 ± 0.42 |
| WYRTRIQRRIFFNRAIYSTA | 0.368 ± 0.85 |
| IEAYVINGKLDWALWFRGDE | -0.407 ± 0.85 |
| LAVERGHCIQVRGLKCLIES | 1.66 ± 0.47 |
| QYLFSGLEEMPIVTVLS | -0.393 ± 0.31 |
| YLRLKKMSVGVWGVIDRCLV | 0.995 ± 0.51 |
| TGNGRDVLHSSALKVPNRR | 0.715 ± 0.43 |
| RCDRTGQRRALDRGSCFLVE | -0.46 ± 1.1 |
| NNLWCSFS | -0.577 ± 0.43 |
| FKTRSRNRLVCCYEESRTDL | 0.536 ± 0.34 |
| SYARTFMDLHNGSRH | -0.013 ± 0.25 |
| FWGNGQRVNSNIQRDVKWDA | -0.199 ± 0.45 |
| ICHFVLYVQRPNSGWHYKSL | 1.91 ± 0.53 |
| RGCSFFWCPLCRGYGGCLCC | 0.482 ± 0.74 |
| LVYLA | -0.569 ± 0.87 |
| IKGPLLFIFSESVLAFDETS | 3.6 ± 0.073 |
| WLETRP | -0.226 ± 0.33 |
| GPTYVSSFLELWRNTSHDFC | -0.402 ± 0.88 |
| CMRFAPMMHANCHVKARWHR | 0.696 ± 0.6 |
| SCSGSRMRELAAVYTVIIEY | -1.04 ± 1.1 |

| Substance | amyloid nucleation score |
| --- | --- |
| RYSSVKLEMKSQVVIELTLI | 1.09 ± 0.76 |
| VDNFIYLVNYLHTRNFISRH | -0.287 ± 0.35 |
| FVSWLFVS | -1.4 ± 0.98 |
| RYYCFPTQLIHLTTT | -0.755 ± 0.55 |
| LTCMLVRRFGNFIDDSYARA | -1.2 ± 0.5 |
| VWDSFSHVLVRLGIYLFFYV | 0.763 ± 0.42 |
| YLPVYNY | 0.487 ± 0.65 |
| EAPYISFVLIG | inactive |
| NSRSLFFYDSYVAGWYN | 0.542 ± 0.31 |
| GSCGKGHLSPRALLFTHSWQ | -0.446 ± 0.61 |
| CFSDKS | -0.621 ± 0.42 |
| CRAQGFDASSHYCYLFLALS | -0.427 ± 1.4 |
| YFVFFLRDLFWRRKI | 0.408 ± 0.41 |
| FQGTIR | 0.193 ± 1 |
| YLIDSSTPDFR | 0.314 ± 0.3 |
| VKSYNGVGTMYLSRIMLYQY | 0.163 ± 1.4 |
| GWSSFWGPLVCARVWRRIGE | 0.433 ± 0.54 |
| CSLSSRNDLGCIMVLLYAWI | 0.605 ± 0.33 |
| DQRRGFSMETSYTD | 1.42 ± 0.71 |
| NMGIKVLSKYNVIYYSAGTP | 8.343 ± 0.048 |
| PGEVRW | -0.385 ± 1.9 |
| NPRVNNYRVNGWKRGIRDRA | 0.66 ± 0.35 |
| SGRPLEYTDNGEQDRMWWQS | -0.044 ± 0.88 |
| FSQYVGDFYILMRVSFEFMK | 0.033 ± 0.44 |
| VQYLMWSFTVAKLVMQDYHG | 0.835 ± 0.43 |

| Substance | amyloid nucleation score |
| --- | --- |
| NLSCIHGLYYGSRLVSGLYQ | 0.15 ± 0.71 |
| SPHTI | 4.92 ± 0.097 |
| RLYRWPIWWWVSLSEMGISQ | -0.205 ± 0.35 |
| CEGKGWFANITYSDFLLIMR | -0.462 ± 0.97 |
| IDTNCRNCGYREFASKCELR | 0.456 ± 0.26 |
| LFSRFCTTVCKSTFRFDTR | 1.65 ± 0.76 |
| MSKINFFVNMAGL | 5.19 ± 0.062 |
| FMDWIVSCGKCKIGSYYLCI | -0.388 ± 0.29 |
| SYYSGFRMATVSHRIRWRSM | 1.88 ± 0.7 |
| VAFRLTIGCVVSVSINVAGV | 1.19 ± 0.62 |
| RCSGYRFRFTVRRTSLCFVK | -0.447 ± 1.2 |
| SLKFEYCFSPSNVAAVDWGT | -0.34 ± 0.98 |
| IMWSKENWDGG | -0.649 ± 0.44 |
| GTRCMALALGLHIYIFIRGG | -0.161 ± 0.46 |
| STCGCRPGLLFWARSPYN | -0.367 ± 0.63 |
| LRTRSLTALFQLCYHTCNVG | 0.431 ± 0.42 |
| PRGVFYCLCYLVTCLAEFYE | -0.311 ± 0.36 |
| FLLAPTLL | -0.367 ± 1 |
| KITWDLF | 0.759 ± 0.52 |
| ILPKWAK | 0.7 ± 0.97 |
| YFFDIGVDSCMRFDIRVVET | 1.77 ± 0.6 |
| TDQVWMLVSRRFKHFRHIEV | 1.38 ± 0.2 |
| LSCPRLVTLCCNLWDKYSLW | 0.955 ± 0.28 |
| NYRISAYCDSHVRRLPEYMF | 0.175 ± 0.59 |
| KFSFCKS | 0.207 ± 0.31 |

| Substance | amyloid nucleation score |
| --- | --- |
| AVVERFHL | -0.132 ± 0.39 |
| NLGMALRSCMTSTHSVSMW | 0.433 ± 0.47 |
| VSIRFSCRRIYNFLVEFPLG | -0.102 ± 0.19 |
| ALKGSRHDL | -0.037 ± 0.73 |
| YRDTVGVYYRFIRGYWMCTW | -0.396 ± 0.42 |
| VGTFTTELKVVGRIDIVWAR | 0.723 ± 0.46 |
| TLDFMLIKLSERLHLRC | 0.589 ± 0.3 |
| AACLCLYAFGRYVVTRCYGR | -0.068 ± 0.69 |
| SCRSLDAMDKSWS | 1.5 ± 0.52 |
| RHSFGLFVSRLVRFREDGYY | -0.508 ± 0.52 |
| KFIVVS | 0.507 ± 0.62 |
| TCRESMRYVDNGLAFYSWFY | -0.983 ± 0.56 |
| VGLSVRACNFTRVGLMSFRD | 0.388 ± 0.37 |
| VVASAFSSL | 0.388 ± 0.93 |
| DRSDDGHNESLWAVLMRHKV | 0.315 ± 0.52 |
| YNMNFVSLVLGARRVYALSM | 3.62 ± 0.12 |
| RARGAIYTVT | -0.894 ± 2.4 |
| FAGSSGRCTPGSGFQGSIVT | -0.167 ± 0.33 |
| TYMFGHMGADMKGRRSWWCE | 0.354 ± 0.44 |
| SSWSFHARWRVRAISCACN | -0.062 ± 0.51 |
| CEMMDNPFLLLRVKGSKVRS | inactive |
| VRFGWVSSTPVVGVSQLCAH | -0.305 ± 1.1 |
| TRQYIEVSVNLCYIVVDKKN | -0.203 ± 0.39 |
| KVIFQVYYI | 7.46 ± 0.047 |
| GKAASRNGGMWKEMRFEACD | 0.046 ± 0.42 |

| Substance | amyloid nucleation score |
| --- | --- |
| CRSVVGVGSCRTGPEEGVYP | -0.106 ± 1.7 |
| WLMAKGRYLSAFTVSFIRSY | -1.28 ± 1.8 |
| GNSWTSVVLHYFGSFSWGVT | inactive |
| GFMVDERSTIVEDLPRSADV | -0.913 ± 0.34 |
| WDATLNKITYKRSLVGSVSK | 0.275 ± 0.58 |
| CWASIEVLRRSDYGGFCHSV | 0.826 ± 0.6 |
| ALKHPML | -0.815 ± 0.49 |
| SDKEVVSLQEVHTQSEGSEG | 0.174 ± 0.27 |
| LQGCGYYKFGITEEWH | 0.415 ± 0.78 |
| IVMFVGFCGENKLAWDSRRK | 5.03 ± 0.05 |
| NMINLMGTKVDMYCRRVRGI | -1.53 ± 0.84 |
| RSGLCFMCSFEKSVSSR | 0.255 ± 0.3 |
| FSKVGCDKVIRPGKVPFRSF | 0.491 ± 0.9 |
| RLFLKPAQWPNH | 0.562 ± 0.67 |
| SFFRFVQNVSRSAGVSDSAM | -0.508 ± 0.42 |
| NGFPTNELLFPALKVCNSRV | 0.945 ± 1.1 |
| NRIPHGSRRSRAISKVRDA | 0.728 ± 0.97 |
| APDDSRQCSETESSGFLTHW | 0.366 ± 0.47 |
| EESSPEAWSVRERTAGVFVF | -0.09 ± 0.86 |
| SPLNKMVTFVAVLAFVFVLV | 0.114 ± 0.66 |
